{"source": "paper PMC4351179", "biological_target": "human DNA polymerase theta (Polθ), polymerase domain, wild type (human)", "experiment": "SEC", "data": [{"substance": "human DNA polymerase theta (Polθ), polymerase domain, wild type (domain or fragment)", "values": [{"measurement": "stoichiometry N", "result": 2}]}]}
